Test results from PMC12754628.

Biological target: T1, CcpA (Staphylococcus aureus USA300) (UniProt P99175)
T1 sequence: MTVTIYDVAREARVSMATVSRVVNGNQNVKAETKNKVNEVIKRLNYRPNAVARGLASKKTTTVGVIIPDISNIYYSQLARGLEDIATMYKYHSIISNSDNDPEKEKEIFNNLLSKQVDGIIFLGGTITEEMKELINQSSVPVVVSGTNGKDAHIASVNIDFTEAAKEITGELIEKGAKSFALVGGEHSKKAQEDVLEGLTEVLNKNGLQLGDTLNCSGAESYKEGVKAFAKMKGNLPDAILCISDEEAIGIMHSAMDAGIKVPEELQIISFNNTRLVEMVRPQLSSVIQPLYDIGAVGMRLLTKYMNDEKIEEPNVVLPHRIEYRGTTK
Test: competition
Conditions: 10 mM Tris-HCl pH 8.0, 5 mM MgCl2, 1 mM DTT, 50 mM KCl, 0.05% Nonidet P-40, 2.5% glycerol, 25 C, 30 min; 6% native PAGE in 0.5x TBE

ATGCTTTACCAGCTTTGAATGCTGGAACTTTACTTGCTGGGATATCAATTTCTTTACCAGTTTGAGGGTTACGACCTTTACGTGCAGCACGTTCACGTACCTCAAAGTTACCGAAACCAATTAATTGTACTTTTTCACCTTTAGCAAGTGAGTTTTGGATTGATTCGAATACAGCATCTACTGCTGAACCAGCTTCTTTTT (double strand) [hu]
binding: no binding
